Results on two molecules are retold here after patent US6165732A, “Method for identifying apoptosis modulating compounds” (Washington University, priority 1998, dated 2000).

Data set [1] deals with T1, Bcl-2 channel (Mus musculus, UniProt P10417).
T1 construct: proteoliposomes fused to planar lipid bilayer
Description: Effect of Bax death agonist peptide on Bcl-2 channel in planar lipid bilayer. The settings on record: for effect on conductance pattern of Bcl-2 channel: 20 to 100 μM; for effect on ion selectivity of Bcl-2 channel: peptide added to Bcl-2 channel. Type of data set: biochemical, murine. From the text: (§1) The Bax and Bcl-2 polypeptides used in the ion channel studies reported herein were recombinant murine Bcl-2 and Bax polypeptides lacking the C-terminal signal-anchor membrane targeting sequence (Bcl-2ΔC21, amino acids 1-218 of SEQ ID NO:9 and BaxΔC19, amino acids 1-173 of SEQ ID NO:6). These deletion derivatives, also referred to herein as BaxΔTM and Bcl-2ΔTM, were used to avoid any interference of the C-terminal signal-anchor membrane targeting sequence with the capacity of internal α helices to mediate insertion into artificial lipid bilayers.
(§2) Proteoliposomes for fusion with a planar lipid bilayer were prepared as follows. Purified protein (0.25 μg) was added to […] lipid (Azolectin) in 20 μl of KCl buffer (150 mM KCl, 10 mM HEPES, pH 7.0). This mixture was placed into a dialysis bag with a molecular weight cutoff of 12 KDa. After 16 hours dialysis in 3000 volumes of 150 mM KCl (10 mM HEPES, pH 7.0) the proteoliposome suspension was removed and placed on ice for immediate use. The bilayer was set up with a 450:150 cis to trans KCl gradient to identify the ion selectivity of the initial currents. Fusion was initiated by adding 5-20 μl of lipid vesicles (only 5-20 ng of protein) to the cis bilayer chamber with mixing. Non-fused proteoliposomes were removed from the compartments and solutions exchanged as described above.
(§3) Control bilayers containing Bcl-2 or Bax channels were prepared by fusion of unilamellar proteoliposomes with incorporated Bcl-2ΔTM or BaxΔTM with an established planar bilayer as described in Example 4. Test bilayers containing Bcl-2 channels were prepared in the same manner to which an 11 mer Bax peptide (SEQ ID NO:1) with known death agonist activity was added at 20, 50 or 100 μM. A voltage of 80 mV was applied to each control and test channel and its conductance measured for a period of 12 to 16 seconds and the frequency that each channel was measured at a particular conductance level (pA) was calculated. The data, representing about 500,000 measurements, are shown as histograms in FIGS. 8A-8E.
Bilayers containing Bcl-2 and Bax channels were prepared as described in Example 4 with 150 mM KCl on both sides of the bilayer. The death agonist peptide was added to the cis side of a Bcl-2 channel at 150 μM. The voltage dependence of the currents and the ion selectivity for the Bcl-2 channel in the absence and presence of the death agonist peptide, as well as the Bax channel were determined and the data are shown in FIGS. 9A-C.

For data set [2], the system named is Bax channel. Description: Effect of Bax 11-mer peptide on Bax channel in planar lipid bilayer. Type of data set: biochemical, murine. The settings on record: 20 to 100 μM.
Data set [3] can be described thus: Channel forming activity of peptide in planar lipid bilayers which lack BCL-2 related proteins. In kind it is biochemical. As to conditions: bilayers lacking BCL-2 related proteins.
For data set [4], the system named is cell death. The settings on record: known activity; cited from earlier work.
Data set [5] in a line: Cl- release (efflux) from KCl loaded synthetic lipid vesicles as a function of pH. In kind it is biochemical. How it is done: This example illustrates that Bax and Bcl-2 induce the release of ions from synthetic lipid vesicles.
Unilamellar vesicles composed of 40% 1,2 dioleoyl phosphatidyl glycerol and 60% 1,2 dioleoyl phosphatidyl choline (Avanti Polar Lipids) were prepared in 100 mM KCl, 2 mM CaNO3 and 10 mM dimethylglutarate, pH 5.0 as previously described (Peterson et al., J. Membr. Biol. 99:197-204, 1987). The resulting liposomes were diluted 200-fold to a concentration of 0.05 mg/ml in 100 mM KNO3, 2 mM CaNO3 and 10 mM dimethylglutarate which was titrated to pH 3.5, 4.0, 4.5, 5.0, 5.5 or 6.0 with NaOH or with acetic acid. BaxΔC19 and Bcl-2ΔC21 were added at a concentration of 500 ng/ml and Cl^- efflux was measured with a Cl^- combination ion selective electrode (Accumet). Triton X-100 (0.1%) was added to release the total encapsulated Cl^- at the times indicated by the arrows in FIG. 1. The total amount of Cl^- released was quantitated by a calibration curve produced by successive additions of 25 μM KCl.

Data set [6] in a line: Low pH channel formation after addition of protein to an established planar lipid bilayer. Type of data set: biochemical. As to conditions: for conductance of initial channel: pH 4.0, initial current.
Excerpt: as §1
(§4) Planar lipid bilayers were prepared from soybean lipids by chloroform extraction of Azolectin Type II (10-20% choline, 80-90% negatively charged lipids) (Sigma). The chloroform was removed with a stream of nitrogen and the lipids stored under N2 until dissolved in decane at 30 mg/ml. This preparation was then stored under nitrogen. The 0.25 mm orifice of a polystyrene cuvette (Warner Instruments) was pretreated with 2 μl of the decane lipid solution and the solvent allowed to evaporate. The cuvette was then placed into a bilayer chamber and connected to Bilayer Clamp BC525-a (Warner Instruments) by Ag/AgCl electrodes via agar salt bridges. Data were collected using an Axoscope (Axon Instruments Software), archived on video tape using a Neurocorder DR-484 (Neuro Data Instruments), and analyzed using Origin (Microcal) and pClamp6 (Axon Instruments Software). Slope conductance was calculated by the method of least squares and the variance is given. Ion selectivities were calculated using the reversal potential and the Goldman equation. The reversal potential means the zero-current potential of a bilayer membrane. The reversal potential is zero with no ion gradient and the magnitude of the potential in the presence of an ion gradient reflects the cation versus anion selectivity of the bilayer.
Bilayers were formed by spreading with a polished glass rod and allowed to thin to a capacitance of 0.4 μF/cm^2 at which point the noise was typically 0.2 pA and the leak conductance was 20 pS. The salt concentrations were initially 450 mM KCl in the cis chamber (1.0 ml) and 150 mM KCl in the trans chamber (0.5 ml) to permit identification of spontaneous initial currents. Outward (positive) currents were defined as K^+ moving cis-to trans. All solutions were buffered to pH 4.0 with 10 mM K-acetate. BaxΔTM or Bcl-2ΔTM (approx. 1 μg) was added to the cis chamber with mixing. After initial currents were identified the soluble protein was usually removed by exchanging the cis chamber contents with aliquots of buffer.

The nature of data set [7]: Channels in planar lipid bilayers at pH 7.0 after fusion with unilamellar proteoliposomes containing the protein. In kind it is biochemical.
Excerpt: as §1, §4, §2
as §3, with “8A-8E. […]” for “8A-8E.”

For data set [8] the following is noted: cited from earlier work.
The conditions of data set [9]: cited from earlier work. This is another data set of the same source.
[10] abbreviates: stated as behaviour like Bax / Bcl-2 (criterion).
Setting [11] is: 450/150 mM KCl gradient, pH 7.0.

T1 sequence (P10417 1-218): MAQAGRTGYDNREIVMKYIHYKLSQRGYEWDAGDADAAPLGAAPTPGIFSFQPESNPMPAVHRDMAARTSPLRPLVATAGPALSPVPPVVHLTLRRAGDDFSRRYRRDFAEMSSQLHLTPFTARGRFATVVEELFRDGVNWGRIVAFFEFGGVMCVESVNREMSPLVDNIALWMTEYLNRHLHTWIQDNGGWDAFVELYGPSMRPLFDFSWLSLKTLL

As for ECLKRIGDELD [Bax 11mer peptide], the “single remaining conductance peak of Bcl-2 channel” value in data set [1] (100 μM peptide, 80 mV) is recorded as “about 65 pA”. Moreover, the “pK/pCl of Bcl-2 channel with peptide” value in [1] (150 μM peptide, cis side) worked out at 0.26±0.05. Besides, in data set [1] (150 μM peptide, symmetrical 150 mM KCl), the “slope of Bcl-2 channel current at negative potentials” value was “linear and intermediate between that of Bcl-2 and Bax alone”. For the same molecule, the “effect on rectification of Bcl-2 channel” value in [1] (150 μM peptide, symmetrical 150 mM KCl, listed as death agonist peptide) was “imparted rectification”. In addition, the “effect on conductance pattern of Bcl-2 channel” value in [1] is “a simpler single channel conductance pattern”; in data set [1] (listed as 11 mer Bax peptide), “changes its characteristic conductance pattern in a progressive manner”. Further, the entries for the “effect on ion selectivity of Bcl-2 channel” value in data set [1] and in data set [1] (listed as death agonist peptide) were “Cl^- selectivity” and “reversed the ion selectivity of the Bcl-2 channel”, respectively. Also, in [2], the “effect on activity of Bax channels” value is given as “not affected”. Also, the channel forming activity result in data set [3] is “no channel forming activity”. Also, the “cell death induction (known)” value in data set [4] is on record as “known to induce cell death”.

B1: Bcl-2: recombinant murine Bcl-2 polypeptide lacking the C-terminal signal-anchor membrane targeting sequence (amino acids 1-218 of SEQ ID NO:9) (protein)
chain: MAQAGRTGYDNREIVMKYIHYKLSQRGYEWDAGDADAAPLGAAPTPGIFSFQPESNPMPAVHREMAARTSPLRPLVATAGPALSPVPPCVHLTLRRAGDDFSRRYRRDFAEMSSQLHLTPFTARGRFATVVEELFRDGVNWGRIVAFFEFGGVMCVESVNREMSPLVDNIALWMTEYLNRHLHTWIQDNGGWDAFVELYGPSMRPLFDFSWLSLKTLL
In the case of B1, the “inactivation of Cl- release” value in data set [5] (by pH 5.0, 500 ng/ml, FIG. 1B) is “complete inactivation”. In addition, in [5] (pH 3.5), the “Cl- release from KCl loaded lipid vesicles” value came to 81% and the “relative activity of Bcl-2 versus Bax (Cl- release)” value is “twice as active as Bax”. For the same molecule, the “Cl- release from KCl loaded lipid vesicles” value in data set [5] (pH 4.0, same quantities of each protein) was determined as 75%. In data set [5] (pH 5.0), the “Cl- release from KCl loaded lipid vesicles” value came to 7%. Besides, the “release of Cl- on pH shift” value in data set [5] (pH 5.0 shifted to 4.0, FIG. 1D) is listed as “activated the release of Cl^-”. For the same molecule, in [5] (setting [10]), the “ratio of channel indicator release at pH 3.5 and pH 4.0 (R3.5/4.0)” value is “about 1.0”; the “ratio of indicator release at pH 4.0 and 5.0 (R4.0/5.0)” value is “greater than 7.0”. Besides, the “initial current (direction)” value in data set [6] (450/150 mM KCl cis to trans, pH 4.0, spontaneous (OS)) is reported as “initial outward”. In [6] (450/150 mM KCl, pH 4.0), the “PK/PCl of initial current” value is listed as 3.9, the “magnitude of initial current” value turned out to be 0.85±0.06 pA and the “time to appearance of initial current” value was at most 5 min. Besides, the “conductance of initial channel” value in [6] (450/150 mM KCl) stood at 80.3±0.06 pS. Moreover, the “conductance of initial channel” value in data set [6] (450/150 mM KCl, listed as Bcl-2ΔTM) is on record as 80 pS. Also, in data set [6] (pH 4.0), the “duration of initial state” value lay in the range of 2 to 5 min and the “slope conductance of final stable channel” value is reported as 1.90±0.06 nS. For the same molecule, in data set [6] (pH 4.0, with brief closures), the “duration of channel open periods” value fell in the range of 5 to 10 s. Further, in data set [6] (pH 4.0 to 7.0), the “effect of shifting pH on conductance and selectivity” value is “not Bcl-2”. Moreover, the “PK/PCl after pH shift to 7.0” value in data set [6] (pH 7.0 after insertion at pH 4.0) worked out at 6.5. Also, the “conductance of large pore after pH shift to 7.0” value in data set [6] (pH shifted to 7.0, FIG. 4E) was found to be 2.14±0.04 nS. The “ion selectivity of channel” value in data set [6] (planar bilayers, low pH insertion) was “mild cation selectivity”. The single channel current in [7] (450/150 mM KCl gradient, FIG. 5A) worked out at 5 pA. In addition, in data set [7] (setting [11]), the “PK/PCl from reversal potential” value is 2.4 and the “initial current (direction)” value was “outward (K^+) current”. Besides, the conductance pattern result in data set [7] (neutral pH) is “complex multichannel conductance pattern”. Also, the “ion selectivity of channel” value in data set [7] (neutral pH, proteoliposome fusion) was “K^+ -selective”. Further, the “voltage dependence of open channel current” value in data set [7] (symmetrical 150 mM KCl) was “linear”. Also, in data set [7] (symmetrical 150 mM KCl, FIG. 5C), the “hyperpolarization beyond which a channel closure occurs” value is “more than -70 mV”. Moreover, the slope conductance in data set [7] (symmetrical 150 mM KCl, pH 7.0) is 1.08 (s.d. 0.10, n=5) nS. Besides, the rectification entry in data set [7] (symmetrical KCl, neutral pH) is recorded as “no rectification”. For the same molecule, the primary channel conductance in data set [8] (lipid bilayers, physiological pH (Schendel et al.)) is 18±2 pS. Moreover, the ion selectivity result in data set [8] (pH 5.4 (Schendel et al.)) is listed as “cation selective”. Further, in data set [8] (planar lipid bilayers, physiological pH), the multiple conductance states entry was “multiple channel conductance states”. The “pore forming activity in lipid vesicles” value in [9] (pH above 5.5) is reported as “little or no detectable pore forming activity”. Moreover, in [9] (pH values below 5.5), the “insertion into synthetic lipid vesicles” value is given as “insert into synthetic lipid vesicles at pH values below 5.5”. For the same molecule, the “antagonism of BaxΔTM pore-forming activity in liposomes” value in [9] (physiological pH (Antonsson et al.)) was “antagonized”.
